In US20140303084:
Where a chain is given by its changes, count along the chain named.

Key:
rRAPGKLTCLASYCWLSWTGIA = tested on: T1, rRAPGKLTCLASYCWLSWTGIA
T1 sequence: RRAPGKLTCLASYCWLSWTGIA

[1] = tested on: T2, RRAPGKLT-Asp-LASY-Dap-WLFWTGIA-CONH2
T2 sequence: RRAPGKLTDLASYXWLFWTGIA

rRAPGKLTCLASYCWLFSTGIA = tested on: T3, rRAPGKLTCLASYCWLFSTGIA
T3 sequence: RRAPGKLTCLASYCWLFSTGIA

[2] = tested on: T4, SRIRTVGPGSRSASGKSTCLASYCWLFWTGIA
T4 sequence: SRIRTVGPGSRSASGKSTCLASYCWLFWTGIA

[3] = tested on: T5, PEG4-RRAPGKLTCLASYCWLFWTGIA
T5 sequence: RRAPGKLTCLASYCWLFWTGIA

[4] = tested on: T6, PNLLRVRTSE VRNPG KLTCLASYCWLFWTGIA
T6 sequence: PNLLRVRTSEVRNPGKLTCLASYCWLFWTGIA

KLTCLASYC = tested on: T7, KLTCLASYC
T7 sequence: KLTCLASYC

[5] = tested on: T8, SKQGRAISPDrRAAGKLTCLASYCWLFWTGIA
T8 sequence: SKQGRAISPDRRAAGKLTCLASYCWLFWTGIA

[6] = tested on: T9, PRIRTVGPGSRSASGKLTCLASACWLFWTGIA
T9 sequence: T4 sequence with S1P, S17L, Y23A

[7] = tested on: T10, RRAPGKLTCLASYCWLFWT-Sar-IA
T10 sequence: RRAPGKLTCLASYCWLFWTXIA

[8] = tested on: T11, RRAPGKLTCLASYCWLF WTGWS RDTASHASDS
T11 sequence: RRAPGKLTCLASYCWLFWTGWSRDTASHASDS

[9] = tested on: T12, RRAPGKLT-Lys-LASY-Glu-WLFWTGIA-COOH
T12 sequence: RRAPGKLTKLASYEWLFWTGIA

HMQWGKLPCLASYCWLFWYGIG = tested on: T13, HMQWGKLPCLASYCWLFWYGIG
T13 sequence: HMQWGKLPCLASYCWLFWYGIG

KLT-Dab-LASY-Glu-WLF = tested on: T14, KLT-Dab-LASY-Glu-WLF
T14 sequence: KLTXLASYEWLF

[10] = tested on: T15, RRAPGKLTCLASYCWLF WRGFA ERASEDTNQG
T15 sequence: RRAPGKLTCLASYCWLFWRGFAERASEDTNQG

[11] = tested on: T16, RRAPGCLTALASYAWLCWTGIA-CONH2
T16 sequence: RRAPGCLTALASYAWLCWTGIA

RRAPGKLQCLASYCWLFWTGLA = tested on: T17, RRAPGKLQCLASYCWLFWTGLA
T17 sequence: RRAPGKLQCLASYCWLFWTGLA

RRAPGKLQCLASYCWLFKTGIA = tested on: T18, RRAPGKLQCLASYCWLFKTGIA
T18 sequence: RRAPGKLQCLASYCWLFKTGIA

compound 22 = tested on: T19, compound 22
T19 sequence: T8 sequence with A6P

[12] = tested on: T20, RRAPGKLTCLASYCK(PEG2-Biotin)LFWTGIA
T20 sequence: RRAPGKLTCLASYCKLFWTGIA

[13] = tested on: T21, RRAPGKLTCLASYCWLFWTGIK(PEG2-Biotin)
T21 sequence: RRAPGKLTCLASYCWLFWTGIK

KLTCLASACWLF = tested on: T22, KLTCLASACWLF
T22 sequence: KLTCLASACWLF

compound 23 = tested on: T23, compound 23
T23 sequence: T4 sequence with S1P, S17L

KLTCLASYCW-Nle-F = tested on: T24, KLTCLASYCW-Nle-F
T24 sequence: KLTCLASYCWXF

[14] = tested on: T25, RRAPGKLQCLASYCWLFWT-Aib-IA
T25 sequence: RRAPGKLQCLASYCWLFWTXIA

[15] = tested on: T26, RRAPGCLTALASYAWLCWTGIA-COOH
T26 sequence: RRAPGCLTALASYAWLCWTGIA

[16] = tested on: T27, RRAPGKLTCLASYCWLF WAGYP SLRGSLLVGV
T27 sequence: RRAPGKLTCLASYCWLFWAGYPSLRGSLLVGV

[17] = tested on: T28, PRIRTVGPGSRSASGKLTCLASYCWLFWTLIA
T28 sequence: T4 sequence with S1P, S17L, G30L

RRAAGKLQCLASYCWLFWTGIA = tested on: T29, RRAAGKLQCLASYCWLFWTGIA
T29 sequence: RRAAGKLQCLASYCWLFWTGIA

[18] = tested on: T30, PRISTVGPGSRSASGKLTCLASYCWLFWTGIA
T30 sequence: T4 sequence with S1P, R4S, S17L

KLTALASYAWLF = tested on: T31, KLTALASYAWLF
T31 sequence: KLTALASYAWLF

RGRSAKLRCLASYCWLFFTVIL = tested on: T32, RGRSAKLRCLASYCWLFFTVIL
T32 sequence: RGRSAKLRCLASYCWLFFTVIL

RRRKLTCLASYCWLFRRR = tested on: T33, RRRKLTCLASYCWLFRRR
T33 sequence: RRRKLTCLASYCWLFRRR

[19] = tested on: T34, C(Acm)GGGGfpipR-PEG5-rRAPGKLTCLASYCWLFWTGIA
T34 sequence: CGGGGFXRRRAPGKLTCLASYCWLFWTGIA

[20] = tested on: T35, PRIrTVGPGSrSASGKSTCLASYCWLFWTGIA-PEG4-Pra
T35 sequence: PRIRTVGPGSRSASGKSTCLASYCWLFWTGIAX

[21] = tested on: T36, RRAP-Sar-KLTCLASYCWLFWTGIA
T36 sequence: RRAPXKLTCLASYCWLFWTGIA

[22] = tested on: T37, RRAPGKLQCLASYCWLFWTG-Tle-A
T37 sequence: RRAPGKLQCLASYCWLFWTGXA

LTCLASYCWLF = tested on: T38, LTCLASYCWLF
T38 sequence: LTCLASYCWLF

KLTCLASYCWAF = tested on: T39, KLTCLASYCWAF
T39 sequence: KLTCLASYCWAF

[23] = tested on: T40, RRAPGKLT-Asp-LASY-Lys-WLFWTGIA-CONH2
T40 sequence: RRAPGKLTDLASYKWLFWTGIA

[24] = tested on: T41, RRAPGKK(PEG2-Biotin)TCLASYCWLFWTGIA
T41 sequence: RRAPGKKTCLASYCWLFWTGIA

[25] = tested on: T42, PRIRTVGPGSRSASGKLTCVASYCWLFWTGIA
T42 sequence: T4 sequence with S1P, S17L, L20V

[26] = tested on: T43, RRAK(PEG2-Biotin)GKLTCLASYCWLFWTGIA
T43 sequence: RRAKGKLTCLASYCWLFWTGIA

[27] = tested on: T44, SRSRTVSPGSRSASGKSTCLASYCWLFWTGIA
T44 sequence: T4 sequence with I3S, G7S

KL-MeThr-CLASYCWLF = tested on: T45, KL-MeThr-CLASYCWLF
T45 sequence: KLTCLASYCWLF

k-MeLeu-TCLASYCQLF = tested on: T46, k-MeLeu-TCLASYCQLF
T46 sequence: KLTCLASYCQLF

[28] = tested on: T47, RRAPGKLCALASYACLFWTGIA-COOH
T47 sequence: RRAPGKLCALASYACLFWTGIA

KLTCLASYCALF = tested on: T48, KLTCLASYCALF
T48 sequence: KLTCLASYCALF

**Q.** Which Vmax, FXa generation assay (rRAPGKLTCLASYCWLSWTGIA) does the source give for human Factor IXa here?
**A.** The Vmax, FXa generation assay was over 1.8.

**Q.** And the Vmax, FXa generation assay [1]?
**A.** Its Vmax, FXa generation assay is over 2.

**Q.** What about the “Vmax, FXa generation assay; (++) means 1-2” value (“Vmax … (++) means 1-2” below) (rRAPGKLTCLASYCWLFSTGIA) of the same substance?
**A.** The value was “(++)”.

**Q.** What about the Vmax, FXa generation assay [2] of the same substance?
**A.** The Vmax, FXa generation assay was over 3.

**Q.** And the Vmax, FXa generation assay [3]?
**A.** Its Vmax, FXa generation assay is over 3.

**Q.** And the “Vmax … (++) means 1-2” value [4]?
**A.** The value was “(++)”.

**Q.** And the Vmax, FXa generation assay (KLTCLASYC)?
**A.** Its Vmax, FXa generation assay is over 3.

**Q.** And the Vmax, FXa generation assay [5]?
**A.** Its Vmax, FXa generation assay is over 3.

**Q.** And the “Vmax … (++) means 1-2” value [6]?
**A.** The value was “(++)”.

**Q.** And the Vmax, FXa generation assay [7]?
**A.** The Vmax, FXa generation assay was over 3.

**Q.** What about the Vmax, FXa generation assay [8] of the same substance?
**A.** The Vmax, FXa generation assay was over 2.

**Q.** And the “Vmax … (++) means 1-2” value [9]?
**A.** Its value is “(++)”.

**Q.** And the Vmax, FXa generation assay (HMQWGKLPCLASYCWLFWYGIG)?
**A.** Its Vmax, FXa generation assay is over 2.

**Q.** What about the “Vmax … (++) means 1-2” value (KLT-Dab-LASY-Glu-WLF) of the same substance?
**A.** Its value is “(++)”.

**Q.** And the Vmax, FXa generation assay [10]?
**A.** Its Vmax, FXa generation assay is over 2.

**Q.** And the “Vmax … (++) means 1-2” value [11]?
**A.** The value was “(++)”.

**Q.** What about the Vmax, FXa generation assay (RRAPGKLQCLASYCWLFWTGLA) of the same substance?
**A.** Its Vmax, FXa generation assay is over 2.

**Q.** And the Vmax, FXa generation assay (RRAPGKLQCLASYCWLFKTGIA)?
**A.** The Vmax, FXa generation assay was over 0.2.

**Q.** What about the Vmax, FXa generation assay with hFIXa (compound 22) of the same substance?
**A.** The Vmax, FXa generation assay with hFIXa was over 3.

**Q.** And the “Vmax … (++) means 1-2” value [12]?
**A.** Its value is “(++)”.

**Q.** What about the “Vmax … (++) means 1-2” value [13] of the same substance?
**A.** The value was “(++)”.

**Q.** What about the Vmax, FXa generation assay (KLTCLASACWLF) of the same substance?
**A.** Its Vmax, FXa generation assay is over 2.

**Q.** What about the Vmax, FXa generation assay with hFIXa (compound 23) of the same substance?
**A.** The Vmax, FXa generation assay with hFIXa was over 3.

**Q.** And the Vmax, FXa generation assay (KLTCLASYCW-Nle-F)?
**A.** Its Vmax, FXa generation assay is over 2.

**Q.** What about the “Vmax … (++) means 1-2” value [14] of the same substance?
**A.** Its value is “(++)”.

**Q.** And the Vmax, FXa generation assay [15]?
**A.** Its Vmax, FXa generation assay is over 0.1.

**Q.** And the Vmax, FXa generation assay [16]?
**A.** Its Vmax, FXa generation assay is over 3.

**Q.** And the Vmax, FXa generation assay [17]?
**A.** Its Vmax, FXa generation assay is over 3.

**Q.** And the Vmax, FXa generation assay (RRAAGKLQCLASYCWLFWTGIA)?
**A.** The Vmax, FXa generation assay was over 2.

**Q.** And the Vmax, FXa generation assay [18]?
**A.** Its Vmax, FXa generation assay is over 3.

**Q.** What about the Vmax, FXa generation assay (KLTALASYAWLF) of the same substance?
**A.** The Vmax, FXa generation assay was over 2.

**Q.** What about the Vmax, FXa generation assay (RGRSAKLRCLASYCWLFFTVIL) of the same substance?
**A.** Its Vmax, FXa generation assay is over 2.

**Q.** What about the “Vmax … (++) means 1-2” value (RRRKLTCLASYCWLFRRR) of the same substance?
**A.** Its value is “(++)”.

**Q.** What about the Vmax, FXa generation assay [19] of the same substance?
**A.** The Vmax, FXa generation assay was over 3.

**Q.** What about the Vmax, FXa generation assay [20] of the same substance?
**A.** The Vmax, FXa generation assay was over 3.

**Q.** What about the Vmax, FXa generation assay [21] of the same substance?
**A.** Its Vmax, FXa generation assay is over 2.

**Q.** And the Vmax, FXa generation assay [22]?
**A.** Its Vmax, FXa generation assay is over 2.

**Q.** What about the “Vmax … (++) means 1-2” value (LTCLASYCWLF) of the same substance?
**A.** Its value is “(++)”.

**Q.** And the Vmax, FXa generation assay (KLTCLASYCWAF)?
**A.** The Vmax, FXa generation assay was over 2.

**Q.** And the Vmax, FXa generation assay [23]?
**A.** The Vmax, FXa generation assay was over 2.

**Q.** And the Vmax, FXa generation assay [24]?
**A.** The Vmax, FXa generation assay was over 2.

**Q.** And the Vmax, FXa generation assay [25]?
**A.** The Vmax, FXa generation assay was over 2.

**Q.** What about the “Vmax … (++) means 1-2” value [26] of the same substance?
**A.** Its value is “(++)”.

**Q.** What about the Vmax, FXa generation assay [27] of the same substance?
**A.** Its Vmax, FXa generation assay is over 3.

**Q.** What about the “Vmax … (++) means 1-2” value (KL-MeThr-CLASYCWLF) of the same substance?
**A.** Its value is “(++)”.

**Q.** And the Vmax, FXa generation assay (k-MeLeu-TCLASYCQLF)?
**A.** The Vmax, FXa generation assay was over 3.

**Q.** What about the Vmax, FXa generation assay [28] of the same substance?
**A.** Its Vmax, FXa generation assay is over 0.3.

**Q.** What about the Vmax, FXa generation assay (KLTCLASYCALF) of the same substance?
**A.** Its Vmax, FXa generation assay is over 3.
